From US11986450B2, “Methods and compositions for treating infection and inflammation with selenocyanate” (National Jewish Health, priority 2017, dated 2024)

Substrate: N#CSO
Experiment: Kinetic analysis of HOSCN metabolism
Assay type: biochemical
Settings: other: recombinant mouse Sec-TrxR
Description: FIGS. 3A-3B. Kinetic analysis of HOSCN metabolism by recombinant mouse Sec-TrxR and recombinant E. coli Cys-TrxR. […] Sec-TrxR forms that lack a selenocysteine (Sec489Cys) or truncated by the last 8 amino acids (D8) had diminished activity.

B1: recombinant mouse Sec-TrxR (Mus musculus) (protein)
chain: GGQQSFDLLVIGGGSGGLACAKEAAQLGKKVAVADYVEPSPRGTKWGLGGTCVNVGCIPKKLMHQAALLGGMIRDAHHYGWEVAQPVQHNWKTMAEAVQNHVKSLNWGHRVQLQDRKVKYFNIKASFVDEHTVRGVDKGGKATLLSAEHIVIATGGRPRYPTQVKGALEYGITSDDIFWLKESPGKTLVVGASYVALECAGFLTGIGLDTTVMMRSIPLRGFDQQMSSLVTEHMESHGTQFLKGCVPSHIKKLPTNQLQVTWEDHASGKEDTGTFDTVLWAIGRVPETRTLNLEKAGISTNPKNQKIIVDAQEATSVPHIYAIGDVAEGRPELTPTAIKAGKLLAQRLFGKSSTLMDYSNVPTTVFTPLEYGCVGLSEEEAVALHGQEHVEVYHAYYKPLEFTVADRDASQCYIKMVCMREPPQLVLGLHFLGPNAGEVTQGFALGIKCGASYAQVMQTVGIHPTCSEEVVKLHISKRSGLEPTVTGCUG
In the case of B1, the Km is reported as 30 µM.
